Values of other authors in paper PMC10671529.

Legend:
HigB2 (Vibrio cholerae) = HigB2 (Vibrio cholerae) (UniProt Q9KMA6)
Im9 (Escherichia coli) = Im9 (Escherichia coli) (UniProt P13479)
Chain of UniProt P13479 (P13479 whole entry): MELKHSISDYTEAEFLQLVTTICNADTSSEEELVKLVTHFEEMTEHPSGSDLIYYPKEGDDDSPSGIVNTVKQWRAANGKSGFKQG

Chain of UniProt Q9KMA6 (Q9KMA6 whole entry): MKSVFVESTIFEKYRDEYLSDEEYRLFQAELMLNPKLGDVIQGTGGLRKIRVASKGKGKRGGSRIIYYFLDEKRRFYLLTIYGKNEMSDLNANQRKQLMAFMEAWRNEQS

Row | Substance | Kd (HigB2 (Vibrio cholerae)) | Kd (Im9 (Escherichia coli))
1 | HigA2 (from UniProt Q9KMA5) | 3.1 pM | –
2 | colicin E9 DNase (from UniProt P09883) | – | 0.023 pM
